According to PMC6179184, “Interaction of the Warsaw breakage syndrome DNA helicase DDX11 with the replication fork-protection factor Timeless promotes sister chromatid cohesion” (PLoS Genetics, 2018):

B1: DDX11-3xFlag wild type [human] / endogenous Timeless (HEK 293T) [human (endogenous in HEK 293T)] (parent complex)
chain 1: MANETQKVGAIHFPFPFTPYSIQEDFMAELYRVLEAGKIGIFESPTGTGKSLSLICGALSWLRDFEQKKREEEARLLETGTGPLHDEKDESLCLSSSCEGAAGTPRPAGEPAWVTQFVQKKEERDLVDRLKAEQARRKQREERLQQLQHRVQLKYAAKRLRQEEEERENLLRLSREMLETGPEAERLEQLESGEEELVLAEYESDEEKKVASRVDEDEDDLEEEHITKIYYCSRTHSQLAQFVHEVKKSPFGKDVRLVSLGSRQNLCVNEDVKSLGSVQLINDRCVDMQRSRHEKKKGAEEEKPKRRRQEKQAACPFYNHEQMGLLRDEALAEVKDMEQLLALGKEARACPYYGSRLAIPAAQLVVLPYQMLLHAATRQAAGIRLQDQVVIIDEAHNLIDTITGMHSVEVSGSQLCQAHSQLLQYVERYGKRLKAKNLMYLKQILYLLEKFVAVLGGNIKQNPNTQSLSQTGTELKTINDFLFQSQIDNINLFKVQRYCEKSMISRKLFGFTERYGAVFSSREQPKLAGFQQFLQSLQPRTTEALAAPADESQASTLRPASPLMHIQGFLAALTTANQDGRVILSRQGSLSQSTLKFLLLNPAVHFAQVVKECRAVVIAGGTMQPVSDFRQQLLACAGVEAERVVEFSCGHVIPPDNILPLVICSGISNQPLEFTFQKRELPQMMDEVGRILCNLCGVVPGGVVCFFPSYEYLRQVHAHWEKGGLLGRLAARKKIFQEPKSAHQVEQVLLAYSRCIQACGQERGQVTGALLLSVVGGKMSEGINFSDNLGRCVVMVGMPFPNIRSAELQEKMAYLDQTLPRAPGQAPPGKALVENLCMKAVNQSIGRAIRHQKDFASVVLLDQRYARPPVLAKLPAWIRARVEVKATFGPAIAAVQKFHREKSASS
chain 2: MDLHMMNCELLATCSALGYLEGDTYHKEPDCLESVKDLIRYLRHEDETRDVRQQLGAAQILQSDLLPILTQHHQDKPLFDAVIRLMVNLTQPALLCFGNLPKEPSFRHHFLQVLTYLQAYKEAFASEKAFGVLSETLYELLQLGWEERQEEDNLLIERILLLVRNILHVPADLDQEKKIDDDASAHDQLLWAIHLSGLDDLLLFLASSSAEEQWSLHVLEIVSLMFRDQNPEQLAGVGQGRLAQERSADFAELEVLRQREMAEKKTRALQRGNRHSRFGGSYIVQGLKSIGERDLIFHKGLHNLRNYSSDLGKQPKKVPKRRQAARELSIQRRSALNVRLFLRDFCSEFLENCYNRLMGSVKDHLLREKAQQHDETYYMWALAFFMAFNRAASFRPGLVSETLSVRTFHFIEQNLTNYYEMMLTDRKEAASWARRMHLALKAYQELLATVNEMDISPDEAVRESSRIIKNNIFYVMEYRELFLALFRKFDERCQPRSFLRDLVETTHLFLKMLERFCRSRGNLVVQNKQKKRRKKKKKVLDQAIVSGNVPSSPEEVEAVWPALAEQLQCCAQNSELSMDSVVPFDAASEVPVEEQRAEAMVRIQDCLLAGQAPQALTLLRSAREVWPEGDVFGSQDISPEEEIQLLKQILSAPLPRQQGPEERGAEEEEEEEEEEEEELQVVQVSEKEFNFLDYLKRFACSTVVRAYVLLLRSYQQNSAHTNHCIVKMLHRLAHDLKMEALLFQLSVFCLFNRLLSDPAAGAYKELVTFAKYILGKFFALAAVNQKAFVELLFWKNTAVVREMTEGYGSLDDRSSSRRAPTWSPEEEAHLRELYLANKDVEGQDVVEAILAHLNTVPRTRKQIIHHLVQMGLADSVKDFQRKGTHIVLWTGDQELELQRLFEEFRDSDDVLGHIMKNITAKRSRARIVDKLLALGLVAERRELYKKRQKKLASSILPNGAESLKDFCQEDLEEEENLPEEDSEEEEEGGSEAEQVQGSLVLSNENLGQSLHQEGFSIPLLWLQNCLIRAADDREEDGCSQAVPLVPLTEENEEAMENEQFQQLLRKLGVRPPASGQETFWRIPAKLSPTQLRRAAASLSQPEEEQKLQPELQPKVPGEQGSDEEHCKEHRAQALRALLLAHKKKAGLASPEEEDAVGKEPLKAAPKKRQLLDSDEEQEEDEGRNRAPELGAPGIQKKKRYQIEDDEDD

Variants of: B1
Assay: co-immuno-precipitation (anti-Flag M2 agarose beads) with quantified Western blot; HEK 293T whole cell extracts, 48 hr post-transfection; three independent experiments; parent: 1; read off a plot

Row | ratio to parent | Variant
1 | ~0.48 | chain 1 E201K, chain 1 Y202A
2 | ~0.56 | chain 1 E201K, chain 1 Y202A, chain 1 E203K
